This is an account of results in the supplement of paper PMC7877785.

The data set can be described thus: self-splicing fitness, log relative to wild type (ln ratio); higher = more splicing; Tetrahymena group I intron in knt gene, E. coli kanamycin selection, DiMSum; sequences stand for … in CUCUCU…GGAGGGAAAAGUUAUCAGGCAUGCACCUGGUAGCUAGUCUUUAAACCAAUAGAUUGCAUCGGUUUAAAAGGCAAGACCGUCAAAUUGCGGGAAAGGGGUCAACAGCCGUUCAGUACCAAGUCUCAGGGGAAACUUUGAGAUGGCCUUGCAAAGGGUAUGGUAAUAAGCUGACGGACAUGGUCCUAACCACGCAGCCAAGUCCUAAGUCAACAGAUCUUCUGUUGAUAUGGAUGCAGUUCACAGACUAAAUGUCGGUCGGGGAAGAUGUAUUCUUCUCAUAAGAUAUAGUCGGACCUCUCCUUAAUGGGAGCUAGCGGAUGAAGUGAUGCAACACUGGAGCCGCUGGGAACUAAUUUGUAUGCGAAAGUAUAUUGAUUAGUUUUGGAGUACUCGUGGUCG
Summed up:
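Library with all eight P1ex-region intron nucleotides randomised, intron inside the knt kanamycin-resistance gene on pET-22b(+), in E. coli BL21(DE3). Cells grew overnight at 37°C or 30°C on LB agar with or without 25 μg/mL kanamycin (plus 100 μg/mL carbenicillin, 50 μM IPTG, 0.2% rhamnose), in six replicate transformations. Pooled colonies were amplicon-sequenced on Illumina HiSeq 2500. DiMSum fitness is the error-weighted combination of wild-type-normalised replicate fold changes, kanamycin versus none.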

± gives the uncertainty stated by the source.

For GGCGAGCAAUAUUACGACCA, the “self-splicing fitness (ln)” value was -2.38 ± 0.39 (30 °C) and -1.05 ± 0.42 (37 °C).
In the same order, the values of GGAAAGCAAUAUUACGAUCG are -0.227 ± 0.084 and -0.145 ± 0.12.
The corresponding values for UCGUAGCAAUAUUACGCGAG are -4.07 ± 0.23 and -2.43 ± 0.16.
Turning to GACUAGCAAUAUUACGAAAC, the “self-splicing fitness (ln)” value reads like this: (30 °C) -1.3 ± 0.12; (37 °C) -0.114 ± 0.13.
The corresponding values for CCUCAGCAAUAUUACGUAGU are -2.16 ± 0.066 and -0.762 ± 0.075.
For the sequence UUAAAGCAAUAUUACGCAGU, the “self-splicing fitness (ln)” value is, setting by setting: (30 °C) -3.1 ± 0.28; (37 °C) -1.36 ± 0.18.
As to ACGCAGCAAUAUUACGCUAG, the “self-splicing fitness (ln)” value is -3.42 ± 0.22 (30 °C) and -2.33 ± 0.24 (37 °C).
For CGGAAGCAAUAUUACGUUUG, the “self-splicing fitness (ln)” value is, setting by setting: (30 °C) -1.9 ± 0.071; (37 °C) -1.35 ± 0.089.
In the same order, the values of UUCGAGCAAUAUUACGGACG are -1.8 ± 0.18 and -1.42 ± 0.24.
For the sequence UCUAAGCAAUAUUACGCUAC, the “self-splicing fitness (ln)” value (37 °C) is -1.73 ± 0.45.
Turning to UUAUAGCAAUAUUACGUUUA, the “self-splicing fitness (ln)” value runs as follows: (30 °C) -2.29 ± 0.16; (37 °C) -0.505 ± 0.12.
In the same order, the values of AGGUAGCAAUAUUACGGAAC are -3.629 ± 0.035 and -2.2 ± 0.042.
The corresponding values for UAGUAGCAAUAUUACGCCCG are -0.0603 ± 0.35 and 0.255 ± 0.44.
Turning to UUCGAGCAAUAUUACGUCGC, the “self-splicing fitness (ln)” value (30 °C) is -2.09 ± 0.21.
For the sequence AACCAGCAAUAUUACGGUCU, the “self-splicing fitness (ln)” value by setting is: (30 °C) -0.594 ± 0.048; (37 °C) -0.249 ± 0.066.
In the case of GGGUAGCAAUAUUACGAAGU, the “self-splicing fitness (ln)” value was -1.74 ± 0.23 (30 °C) and -1.57 ± 0.24 (37 °C).
The corresponding values for CCCUAGCAAUAUUACGGGUU are -4.16 ± 0.17 and -2.39 ± 0.15.
For the sequence GAGGAGCAAUAUUACGGCAU, where the note is “37 °C”, the “self-splicing fitness (ln)” value is -1.87 ± 0.46.
Turning to CCAAAGCAAUAUUACGUUCC, the “self-splicing fitness (ln)” value by setting is: (30 °C) -3.37 ± 0.24; (37 °C) -2.93 ± 0.32.
The corresponding values for ACACAGCAAUAUUACGCUGC are -2.18 ± 0.16 and -1.14 ± 0.15.
Consider GGGUAGCAAUAUUACGUGUG, for which the “self-splicing fitness (ln)” value was -1.65 ± 0.11 (30 °C) and -1.24 ± 0.12 (37 °C).
For the sequence AUUCAGCAAUAUUACGGCUA, the “self-splicing fitness (ln)” value (30 °C) amounted to 0.293 ± 0.09 and the “self-splicing fitness (ln)” value (37 °C) is -0.022 ± 0.084.
The corresponding values for CAACAGCAAUAUUACGUGUG are -3.55 ± 0.14 and -2.32 ± 0.11.
As to GGAAAGCAAUAUUACGAUCC, the “self-splicing fitness (ln)” value (30 °C) was -3.2 ± 0.39.
For the sequence CAAGAGCAAUAUUACGAUAU, the “self-splicing fitness (ln)” value (30 °C) is -3.3 ± 0.29 and the “self-splicing fitness (ln)” value (37 °C) was -2.7 ± 0.3.
UGUGAGCAAUAUUACGCCUA: the “self-splicing fitness (ln)” value (30 °C) was -0.115 ± 0.23.
For AACCAGCAAUAUUACGAAGC, the “self-splicing fitness (ln)” value is -3.37 ± 0.13 (30 °C) and -0.929 ± 0.099 (37 °C).
In the same order, the values of CGUGAGCAAUAUUACGUAGG are -1.12 ± 0.089 and -1.39 ± 0.12.
The corresponding values for CUGUAGCAAUAUUACGUCGA are -2.71 ± 0.35 and -1.06 ± 0.35.
The corresponding values for AACAAGCAAUAUUACGCUUA are -2.08 ± 0.1 and -1.21 ± 0.1.
As for GUCCAGCAAUAUUACGUUCA, the “self-splicing fitness (ln)” value was -0.971 ± 0.088 (30 °C) and 0.797 ± 0.087 (37 °C).
The corresponding values for AAAGAGCAAUAUUACGCUAG are -2.87 ± 0.17 and -2.42 ± 0.27.
The corresponding values for GCUCAGCAAUAUUACGCUCG are -1.1 ± 0.11 and -1.31 ± 0.18.
With UCGAAGCAAUAUUACGAAGC, where the note is “37 °C”, the “self-splicing fitness (ln)” value is -1.84 ± 0.47.
For the sequence CUGCAGCAAUAUUACGGUCU, the “self-splicing fitness (ln)” value runs as follows: (30 °C) -3.44 ± 0.17; (37 °C) -2.07 ± 0.2.
The corresponding values for CACGAGCAAUAUUACGAGCU are -4.14 ± 0.35 and -3.33 ± 0.39.
On to UACGAGCAAUAUUACGCACC, for which, for the setting “30 °C”, the “self-splicing fitness (ln)” value was -1.91 ± 0.39.
For AUACAGCAAUAUUACGAAUC, the “self-splicing fitness (ln)” value is, setting by setting: (30 °C) -4.08 ± 0.25; (37 °C) -2.3 ± 0.18.
As to UUUGAGCAAUAUUACGGCGA, the “self-splicing fitness (ln)” value was -1.09 ± 0.18 (30 °C) and -0.162 ± 0.19 (37 °C).
On to GCAUAGCAAUAUUACGAAGU, for which the “self-splicing fitness (ln)” value (30 °C) is -3.88 ± 0.28.
With ACAUAGCAAUAUUACGCCGU, the “self-splicing fitness (ln)” value by setting is: (30 °C) -2.02 ± 0.17; (37 °C) -1.23 ± 0.2.
In the same order, the values of AAGUAGCAAUAUUACGGAUC are -1.17 ± 0.083 and -0.819 ± 0.12.
Regarding GAAUAGCAAUAUUACGCCUG, the “self-splicing fitness (ln)” value by setting is: (30 °C) -0.487 ± 0.14; (37 °C) -0.504 ± 0.16.
Take ACUCAGCAAUAUUACGCAGA: the “self-splicing fitness (ln)” value was -3.11 ± 0.2 (30 °C) and -2.55 ± 0.22 (37 °C).
In the same order, the values of CGUUAGCAAUAUUACGUGUG are -0.838 ± 0.062 and -1.12 ± 0.08.
The corresponding values for AUGCAGCAAUAUUACGACGG are -1.74 ± 0.11 and -1.41 ± 0.14.
In the same order, the values of CGACAGCAAUAUUACGACUA are -2.15 ± 0.13 and 0.027 ± 0.092.
Consider GUCGAGCAAUAUUACGGGGU, for which the “self-splicing fitness (ln)” value (30 °C) is -1.92 ± 0.16 and the “self-splicing fitness (ln)” value (37 °C) is -1.74 ± 0.18.
Take GGCUAGCAAUAUUACGUAAG: the “self-splicing fitness (ln)” value was -1.64 ± 0.068 (30 °C) and -0.594 ± 0.094 (37 °C).
In the same order, the values of CACCAGCAAUAUUACGGGUG are -3.87 ± 0.15 and -2.26 ± 0.15.
In the same order, the values of CCUGAGCAAUAUUACGUUUU are -3.74 ± 0.23 and -2.81 ± 0.25.
On to CGACAGCAAUAUUACGACCC, for which the “self-splicing fitness (ln)” value (30 °C) is -1.31 ± 0.19 and the “self-splicing fitness (ln)” value (37 °C) stood at 0.117 ± 0.23.
On to GCCCAGCAAUAUUACGUGCG, for which the “self-splicing fitness (ln)” value is -3.42 ± 0.21 (30 °C) and -1.71 ± 0.17 (37 °C).
In the same order, the values of UACGAGCAAUAUUACGACUU are -2.11 ± 0.13 and -0.959 ± 0.15.
On to GAUAAGCAAUAUUACGGGGU, for which the “self-splicing fitness (ln)” value (30 °C) is -3.97 ± 0.25 and the “self-splicing fitness (ln)” value (37 °C) was -1.74 ± 0.16.
Turning to GCUUAGCAAUAUUACGACCA, the “self-splicing fitness (ln)” value (30 °C) is -1.45 ± 0.2 and the “self-splicing fitness (ln)” value (37 °C) is -1.29 ± 0.38.
As for CAUAAGCAAUAUUACGCAAA, the “self-splicing fitness (ln)” value by setting is: (30 °C) -2.93 ± 0.44; (37 °C) -2.46 ± 0.41.
The corresponding values for AGUAAGCAAUAUUACGAACC are -1.74 ± 0.21 and 1.04 ± 0.23.
In the same order, the values of CCUUAGCAAUAUUACGAUCU are -4.14 ± 0.39 and -2.88 ± 0.2.
The corresponding values for GGCCAGCAAUAUUACGAUGA are -3.07 ± 0.28 and -2.03 ± 0.22.
For the sequence UAUAAGCAAUAUUACGGAAG, the “self-splicing fitness (ln)” value (30 °C) is -2.72 ± 0.18 and the “self-splicing fitness (ln)” value (37 °C) was -2.05 ± 0.18.
Consider UAAAAGCAAUAUUACGUGGA, for which the “self-splicing fitness (ln)” value was -2.94 ± 0.13 (30 °C) and -1.52 ± 0.1 (37 °C).
The corresponding values for UACCAGCAAUAUUACGGUUU are -0.896 ± 0.056 and -0.463 ± 0.065.
Take CAGAAGCAAUAUUACGCUUG: the “self-splicing fitness (ln)” value reads like this: (30 °C) -4.25 ± 0.16; (37 °C) -2.99 ± 0.14.
On to CACCAGCAAUAUUACGUACA, for which the “self-splicing fitness (ln)” value (30 °C) is -3.16 ± 0.17 and the “self-splicing fitness (ln)” value (37 °C) is -1.59 ± 0.13.
UGAUAGCAAUAUUACGAGAC: the “self-splicing fitness (ln)” value (37 °C) is -2.59 ± 0.34.
For GUCUAGCAAUAUUACGGCGU, the “self-splicing fitness (ln)” value is, setting by setting: (30 °C) 0.142 ± 0.069; (37 °C) 0.0882 ± 0.091.
On to AUUAAGCAAUAUUACGUGCA, for which the “self-splicing fitness (ln)” value runs as follows: (30 °C) -1.03 ± 0.089; (37 °C) -0.282 ± 0.11.
The corresponding values for CAUGAGCAAUAUUACGUCCU are -4.2 ± 0.32 and -1.88 ± 0.2.
As for CAUCAGCAAUAUUACGGCAC, the “self-splicing fitness (ln)” value was -3.89 ± 0.24 (30 °C) and -2.56 ± 0.24 (37 °C).
AUUCAGCAAUAUUACGACUC: the “self-splicing fitness (ln)” value is -0.805 ± 0.19 (30 °C) and 0.11 ± 0.19 (37 °C).
In the same order, the values of GAUAAGCAAUAUUACGUAGA are -3.26 ± 0.22 and -0.548 ± 0.14.
In the same order, the values of UUAUAGCAAUAUUACGGCCG are -0.763 ± 0.48 and -0.565 ± 0.37.
For CGACAGCAAUAUUACGAGUU, the “self-splicing fitness (ln)” value (30 °C) is -2.98 ± 0.1 and the “self-splicing fitness (ln)” value (37 °C) was -3.25 ± 0.15.
Consider CUUAAGCAAUAUUACGACAA, for which the “self-splicing fitness (ln)” value runs as follows: (30 °C) -2.75 ± 0.41; (37 °C) -2.98 ± 0.34.
As to GAUGAGCAAUAUUACGCGAG, the “self-splicing fitness (ln)” value runs as follows: (30 °C) -0.593 ± 0.16; (37 °C) -0.578 ± 0.2.
As to CCCAAGCAAUAUUACGUUGC, the “self-splicing fitness (ln)” value was -3.18 ± 0.25 (30 °C) and -2.16 ± 0.21 (37 °C).
The corresponding values for AACAAGCAAUAUUACGUUAG are -4.21 ± 0.22 and -3.26 ± 0.24.
